The results in this text go back to patent US20080200654A1 (KIRIN PHARMA, published 2008).

Test [1] has as its target T1, A33 antigen (full-length human A33) (human, UniProt Q99795 22-319).
T1 construct: Class I cell membrane protein of the Ig superfamily; also called GPA33; human A33 antigen
T1 sequence: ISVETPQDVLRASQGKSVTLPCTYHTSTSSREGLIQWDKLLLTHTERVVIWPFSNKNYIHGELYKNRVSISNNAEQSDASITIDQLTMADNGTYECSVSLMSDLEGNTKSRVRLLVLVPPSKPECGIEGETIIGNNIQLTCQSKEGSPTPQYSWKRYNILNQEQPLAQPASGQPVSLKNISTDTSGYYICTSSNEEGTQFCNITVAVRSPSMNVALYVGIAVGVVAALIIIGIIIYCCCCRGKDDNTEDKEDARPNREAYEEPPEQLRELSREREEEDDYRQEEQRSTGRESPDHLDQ
The experiment in a line: FCM on NCI-H508 cells; grade = ng/ml to reach half MFI 125 (+++ 10<=x<100, ++ 100<=x<1000, + 1000<=x<10000). The text has this: (§1) The reactivity of each type of purified monoclonal antibody obtained in Example 8 to A33-antigen-expressing human colorectal cancer cell line COLO205 cells, LoVo cells (ATCC No. CCL-229), LS174T cells (ATCC No. CL-188), and NCI-H508 cells (ATCC No. CCL-253) was examined by FCM. Human colorectal cancer cell line HT-29 cells (ATCC No. HTB-38) expressing no A33 antigen were also examined as negative control cells. Each cell line was suspended at a concentration of 2×10⁶/ml in a PBS Staining Buffer (SB) containing 0.1% NaN₃ and 2% FCS. The cell suspension (50 μl/well) was dispensed in a 96-well round bottom plate (produced by Becton, Dickinson and Company). 50 μl of each type of purified monoclonal antibody (adjusted using SB at a concentration of 2000, 400, 80, or 16 ng/ml) was added, and then incubation was performed on ice for 30 minutes. A negative control was prepared depending on each subclass. Specifically, a human IgG1 antibody (produced by Sigma) was adjusted using SB at a concentration of 2000, 400, 80, or 16 ng/ml. 50 μl of the solution was added, followed by 30 minutes of incubation on ice. The resultant was washed twice with SB and then 50 μl of an FITC fluorescence-labeled goat anti-human IgG F(ab′)₂ antibody (produced by Southern Biotech), followed by 30 minutes of incubation on ice. The resultant was washed once with SB and then the resultant was suspended in 300 μl of a FACS buffer. The mean fluorescence intensity of each cell line was measured by FACS (FACScan produced by Becton, Dickinson and Company).
(§2) For COLO205 cells, the half value of the mean fluorescence intensity was determined to be 90. For LoVo cells, the half value of the mean fluorescence intensity was determined to be 25. […] When an antibody concentration required to reach such value was 10<=x<100 ng/ml, the reactivity was represented by +++, when the same was 100<=x<1000 ng/ml, the reactivity was represented by ++, and when the same was 1000<=x<10000 ng/ml, the reactivity was represented by +. When no binding was observed, the reactivity was represented by −.

In test [2] the target is T1, A33 antigen (full-length human A33). Nature of the test: FCM on LoVo cells; grade = ng/ml to reach half MFI 25 (+++ 10<=x<100, ++ 100<=x<1000, + 1000<=x<10000).
Text: as §1, §2

For test [3] the target is unchanged. Nature of the test: FCM on LS174T cells; grade = ng/ml to reach half MFI 125 (+++ 10<=x<100, ++ 100<=x<1000, + 1000<=x<10000).
Text: as §1, §2

Test [4] shares this target. The experiment in a line: FCM on COLO205 cells; grade = ng/ml to reach half MFI 90 (+++ 10<=x<100, ++ 100<=x<1000, + 1000<=x<10000).
Text: as §1, §2

The target is the same in test [5]. The experiment in a line: FCM competition on COLO205 cells; antibody 1 µg/ml, competitor mouse anti-A33 antibody 100 µg/ml. On the procedure: Whether or not each type of purified monoclonal antibody obtained in Example 8 recognizes an epitope similar to that of the mouse anti-A33 antibody was examined by a competition test using FCM. The COLO205 cell line was suspended at a concentration of 2×10⁶/ml in a PBS Staining Buffer (SB) containing 0.1% NaN₃ and 2% FCS. The cell suspension (50 μl/well) was dispensed in a 96-well round bottom plate (produced by Becton, Dickinson and Company). The purified mouse anti-A33 antibody prepared in Example 1 was not added or added at a concentration of 100 μg/ml to the wells containing each type of purified monoclonal antibody (1 μg/ml and 50 μl), followed by 30 minutes of incubation on ice. A mouse negative control (containing no purified anti-A33 antibody added thereto) was prepared as follows. A human IgG1 antibody (produced by Sigma) was adjusted at a concentration of 1 μg/ml with SB and then 50 μl of the solution was added, followed by 30 minutes of incubation on ice. The resultant was washed twice with SB and then 50 μl of FITC fluorescence-labeled goat anti-human IgG F(ab′)₂ antibody (produced by IBL) was added, followed by 30 minutes of incubation on ice. The resultant was washed once with SB and then the resultant was suspended in 300 μl of a FACS buffer. The mean fluorescence intensity of each cell line was measured by FACS (FACScan produced by Becton, Dickinson and Company). The inhibition (%) between each type of purified monoclonal antibody and the mouse A33 antibody was calculated by the following formula: […]

B1: 125M165DAAA (antibody, V domains shown)
VH: QVQLVESGGGVVQPGRSLRLSCAASGFTFSYYGMHWVRQAPGKGLEWVAVIWYDGSNKYYADSVKGRFTISRDNSKKTLYLQMNSLRAEDTAVYYCARDGHSSGWGDFQHWGQGTLVTVSS
VL: EIVLTQSPATLSLSPGERATLSCRASQSVSSSLAWYQQKPGQAPRLLIYDASNRATGIPARFSGSGSGTDFTLTISSLEPEDFAIYYCQQRSNWPPTFGQGTKVEIK
notes: Human IgG1 kappa antibody purified from the hybridoma (FERM BP-10106); also called 125M165DAAA antibody
On to B1, for which the “antibody concentration required to reach half value of mean fluorescence intensity” value (“antibody concentration required” for short) in test [1] was in the range of 100 to 1000 ng/mL; in test [2], 10 to 100 ng/mL; in test [3] it was 100 to 1000 ng/mL; in test [4], 10 to 100 ng/mL. For the same molecule, the “Inhibition (%)” value in test [5] was 96%.

B2: 125M96ABA (antibody, V domains shown)
VH: QLQLQESGPGLVKPSETLSLTCTVSGGSISTSSYYWGWIRQPPGKGLEWIGTIYYNGSTYYSPSLKSRVSISVDTSKNQFSLKLSSVTAADTSVYYCARQGYDIKINIDVWGQGTTVTVSS
VL: EIVLTQSPATLSLSPGERATLSCRASQSVSSYLAWYQQKPGQAPRLLIYVASNRATGIPARFSGSGSGTDFTLTISSLEPEDFAVYYCQQRSNWPLTFGGGTKVEIK
notes: Human IgG1 kappa antibody purified from the hybridoma (FERM BP-10108); also called 125M96ABA antibody
For B2, the “antibody concentration required” value in test [1] fell in the range of 100 to 1000 ng/mL; in test [2], 10 to 100 ng/mL; in test [3], 100 to 1000 ng/mL; in test [4], 10 to 100 ng/mL. In addition, the “Inhibition (%)” value in test [5] is 22.8%.

B3: 263A17 (antibody, V domains shown)
VH: EVQLLESGGGLVQPGGSLRLSCAASGFTFSSYAMSWIRQAPGKGLEWVSAISASGGSTYYADSVKGRFTISRDNSKNTLYLQMNSLRAEDTAVYYCAKDRIVGATNYYYGMDVWGQGTTVTVSS
VL: DIQMTQSPPSVSASVGDRVTITCRASQGISSWLAWYQHKPGKAPKLLIYGASSLQSGVPSRFSGSGSGTDFTLTISSLQPEDFATYYCQQANSFPITFGQGTRLEIK
notes: Human IgG1 kappa antibody purified from the hybridoma; also called 263A17 antibody
In the case of B3, the “antibody concentration required” value in test [1], in test [2], in test [3] and in test [4] was 100 to 1000 ng/mL throughout. Further, the “Inhibition (%)” value in test [5] came to 3.7%.

B4: 125N26F6AA (antibody, human IgG1, kappa, V domains shown)
VH: QVQLVESGGGVVQPGRSLRLSCAASGFTFSHYGMHWVRQAPGKGLEWVALIWYDGSNKYYADSVKGRFTISRDNSKNTLYLQMNSLRAEDTAVYYCARDPLAAGTSYFDYWGQGTLVTVSS
VL: EIVLTQSPDFQSVTPKEKVTITCRASQSIGSSLHWYQQKPDQSPKLLIKYASQSFSGVPSRFSGSGSGTDFTLTINSLEAEDAAAYYCHQSSSLPFTFGPGTKVDIKR
notes: Human IgG1 kappa antibody purified from hybridoma 125N26F6AA (FERM BP-10109); also called 125N26F6AA antibody
Turning to B4, the “antibody concentration required” value in test [1] lay within 100 to 1000 ng/mL; in test [2], 10 to 100 ng/mL; in test [3], 100 to 1000 ng/mL; in test [4], 10 to 100 ng/mL. For the same molecule, the “Inhibition (%)” value in test [5] came to 98%.

B5: 125Q54AAAA (antibody, V domains shown)
VH: EVQLLESGGGLVQPGGSLRLSCAASGFTFSSYAMSWVRQAPGKGLEWVSDISGSGGYTYYADSVKGRFTISRDNSKNTLYLQMNSLRAEDTAVYYCAKTGDGSGSYSPDSWGQGTLVTVSS
VL: DIQMTQSPSSLSASVGDRVTITCRASQGISRWLAWYQQKPEKAPKSLIYAASSLQSGVPSRFSGSGSGTDFTLTISSLQPEDFATYYCQQYNSYPYTFGQGTKLEIK
notes: Human IgG1 kappa antibody purified from the hybridoma (FERM BP-10105); also called 125Q54AAAA antibody
In the case of B5, the “antibody concentration required” value in test [1] lay in the range of 100 to 1000 ng/mL; in test [2], 10 to 100 ng/mL; in test [3] it was 100 to 1000 ng/mL; in test [4], 10 to 100 ng/mL. Moreover, the “Inhibition (%)” value in test [5] amounted to 46.5%.

B6: 125Q47BA (antibody, V domains shown)
VH: EVQLLESGGGLVQPGGSLRLSCAASGFTFSSYAMTWVRQAPGKGLEWVSDISGSGGYTYYADSVKGRFTISRDNSKNTLYLQMNSLRAEDTAVYYCAKTGAGSGSYSPDSWGQGTLVTVSS
VL: DIQMTQSPSSLSASVGDRVTITCRASQGISSWLAWYQQKPEKAPKSLIYAASSLQSGVPSRFSGSGSGTDFTLTISSLQPEDFATYYCQQYNSYPYTFGQGTKLEIK
notes: Human IgG1 kappa antibody purified from the hybridoma (FERM BP-10104); also called 125Q47BA antibody
Take B6: the “antibody concentration required” value in test [1] was 100 to 1000 ng/mL; in test [2], 10 to 100 ng/mL; in test [3], 100 to 1000 ng/mL; in test [4], 10 to 100 ng/mL. For the same molecule, the “Inhibition (%)” value in test [5] worked out at 64.1%.

B7: 125R5AAAA (antibody, V domains shown)
VH: EVQLLESGGGLVQPGGSLRLSCAASGFTFSSYAMSWVRQAPGKGLEWVSDISGSGGYTYYADSVKGRFTISRDNSKKTLYLQMNSLRAEDTAVYYCAKTGDGSGSYSPDYWGQGTLVTVSS
VL: DIQMTQSPSSLSASVGDRVTITCRASQGISSWLAWYQQKPEKAPKSLIYAASSLQSGVPSRFSGSGSGTDFTLTISSLQPEDFATYYCQQYNSYPYTFGQGTKLEIK
notes: Human IgG1 kappa antibody purified from the hybridoma (FERM BP-10103); also called 125R5AAAA antibody
For the molecule B7, the “antibody concentration required” value was 100 to 1000 ng/mL in test [1], 10 to 100 ng/mL in test [2], 100 to 1000 ng/mL in test [3] and 10 to 100 ng/mL in test [4]. Moreover, the “Inhibition (%)” value in test [5] is 63.9%.

B8: 125M10AA (antibody, human IgG1, kappa, V domains shown)
VH: QLQVQESGPGLVKPSETLSLICTVSGGSIRTSGYYWGWFRQPPGKGLEWIGTSHNSGSTYYNPSLKSRVTISVDTSKNQFSLKLNSVTAADTAVYYCARQGYDFKVNIDVWGQGTTVTVSS
VL: EIVLTQSPATLSLSPGERATLSCRASQSVSSYLAWYQQKPGQAPRLLIYDASNRATGIPARFSGSGSGTDFTLTISSLEPEDFAVYYCQQRSNWPLTFGGGTKVEIKR
notes: Human IgG1 kappa antibody purified from hybridoma 125M10AA (FERM BP-10107); also called 125M10AA antibody
Take B8: the “antibody concentration required” value in test [1], in test [2], in test [3] and in test [4] was 10 to 100 ng/mL in each case. Moreover, the “Inhibition (%)” value in test [5] amounted to 5%.
